Data taken from the supplement of paper PMC7877785.
± gives the uncertainty stated by the source.

Experiment: self-splicing fitness, log relative to wild type (ln ratio); higher = more splicing; Tetrahymena group I intron in knt gene, E. coli kanamycin selection, DiMSum; sequences stand for … in CUCUCU…GGAGGGAAAAGUUAUCAGGCAUGCACCUGGUAGCUAGUCUUUAAACCAAUAGAUUGCAUCGGUUUAAAAGGCAAGACCGUCAAAUUGCGGGAAAGGGGUCAACAGCCGUUCAGUACCAAGUCUCAGGGGAAACUUUGAGAUGGCCUUGCAAAGGGUAUGGUAAUAAGCUGACGGACAUGGUCCUAACCACGCAGCCAAGUCCUAAGUCAACAGAUCUUCUGUUGAUAUGGAUGCAGUUCACAGACUAAAUGUCGGUCGGGGAAGAUGUAUUCUUCUCAUAAGAUAUAGUCGGACCUCUCCUUAAUGGGAGCUAGCGGAUGAAGUGAUGCAACACUGGAGCCGCUGGGAACUAAUUUGUAUGCGAAAGUAUAUUGAUUAGUUUUGGAGUACUCGUGGUCG
Method in brief: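 A randomised library covering all eight P1ex-region intron nucleotides was built with the intron in the knt kanamycin-resistance gene on pET-22b(+) and held in E. coli BL21(DE3). Cells were grown overnight at 37°C or 30°C on LB agar, with or without 25 μg/mL kanamycin, plus 100 μg/mL carbenicillin, 50 μM IPTG and 0.2% rhamnose, and pooled colonies were amplicon-sequenced on an Illumina HiSeq 2500. DiMSum fitness is the error-weighted combination of wild-type-normalised replicate fold changes, kanamycin versus none.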

| Sequence | self-splicing fitness (ln) (30 °C) | self-splicing fitness (ln) (37 °C) |
| --- | --- | --- |
| AAUAAGCAAUAUUACGAGCA | -1.37 ± 0.2 | -0.258 ± 0.2 |
| AAUAAGCAAUAUUACGAUAG | -3.78 ± 0.32 | -2.13 ± 0.24 |
| AAUAAGCAAUAUUACGAUUU | -0.134 ± 0.064 | -0.252 ± 0.074 |
| AAUAAGCAAUAUUACGCACG | -1.06 ± 0.11 | -0.851 ± 0.14 |
| AAUAAGCAAUAUUACGCAUG | -1.16 ± 0.13 | -0.645 ± 0.12 |
| AAUAAGCAAUAUUACGCCAU | -2.76 ± 0.14 | -1.75 ± 0.15 |
| AAUAAGCAAUAUUACGCCCU | -0.352 ± 0.12 | 0.525 ± 0.15 |
| AAUAAGCAAUAUUACGGAGA | -2.61 ± 0.3 | -1.76 ± 0.36 |
| AAUAAGCAAUAUUACGGAUC | -0.855 ± 0.087 | -0.124 ± 0.14 |
| AAUAAGCAAUAUUACGGCCU | -0.0966 ± 0.09 | -0.0762 ± 0.13 |
| AAUAAGCAAUAUUACGGGAG | -2.91 ± 0.19 | -2.14 ± 0.14 |
| AAUAAGCAAUAUUACGGGGU | -3.91 ± 0.31 | -3.11 ± 0.23 |
| AAUAAGCAAUAUUACGGUAC | -2.68 ± 0.21 | -1.79 ± 0.14 |
| AAUAAGCAAUAUUACGGUAG | -3.77 ± 0.24 | -1.95 ± 0.21 |
| AAUAAGCAAUAUUACGGUCU | -0.462 ± 0.055 | 0.0374 ± 0.073 |
| AAUAAGCAAUAUUACGGUUG | -2.86 ± 0.12 | -1.97 ± 0.14 |
| AAUAAGCAAUAUUACGGUUU | -0.628 ± 0.064 | -0.165 ± 0.092 |
| AAUAAGCAAUAUUACGUACA | -0.815 ± 0.1 | -0.842 ± 0.11 |
| AAUAAGCAAUAUUACGUCAG | -3.34 ± 0.18 | -1.82 ± 0.13 |
| AAUAAGCAAUAUUACGUGGC | -2.72 ± 0.22 | -2.82 ± 0.36 |
| AAUAAGCAAUAUUACGUUAA | -2.76 ± 0.19 | -0.928 ± 0.13 |
| AAUAAGCAAUAUUACGUUCG | -1.5 ± 0.08 | -0.605 ± 0.095 |
| AAUAAGCAAUAUUACGUUGU | -3.22 ± 0.14 | -2.51 ± 0.19 |

| Sequence | self-splicing fitness (ln) (30 °C) | self-splicing fitness (ln) (37 °C) |
| --- | --- | --- |
| AAUAAGCAAUAUUACGUUUU | -1.78 ± 0.076 | -1.55 ± 0.12 |
| AAUCAGCAAUAUUACGAACG | -0.399 ± 0.088 | -0.368 ± 0.1 |
| AAUCAGCAAUAUUACGAAGC | -0.428 ± 0.11 | -0.998 ± 0.14 |
| AAUCAGCAAUAUUACGAAGU | -0.414 ± 0.059 | 0.136 ± 0.084 |
| AAUCAGCAAUAUUACGACAU | 0.114 ± 0.011 | 0.208 ± 0.032 |
| AAUCAGCAAUAUUACGACGC | -0.394 ± 0.098 | -0.936 ± 0.11 |
| AAUCAGCAAUAUUACGAGCA | -0.936 ± 0.14 | -0.0653 ± 0.12 |
| AAUCAGCAAUAUUACGAGUU | -0.331 ± 0.049 | 0.000416 ± 0.074 |
| AAUCAGCAAUAUUACGCCUG | -0.906 ± 0.17 | 0.165 ± 0.18 |
| AAUCAGCAAUAUUACGCGGA | -0.694 ± 0.076 | -0.555 ± 0.079 |
| AAUCAGCAAUAUUACGCUAU | -0.347 ± 0.084 | 0.0833 ± 0.12 |
| AAUCAGCAAUAUUACGCUUG | -0.11 ± 0.068 | -0.33 ± 0.084 |
| AAUCAGCAAUAUUACGGACU | -0.329 ± 0.1 | -0.697 ± 0.099 |
| AAUCAGCAAUAUUACGGAGA | -0.814 ± 0.085 | -1.04 ± 0.1 |
| AAUCAGCAAUAUUACGGAGU | -0.488 ± 0.047 | 0.346 ± 0.064 |
| AAUCAGCAAUAUUACGGCCG | -0.87 ± 0.12 | 0.00722 ± 0.18 |
| AAUCAGCAAUAUUACGGCUG | -2.34 ± 0.15 | -1.87 ± 0.2 |
| AAUCAGCAAUAUUACGGGGU | -3.02 ± 0.17 | -1.39 ± 0.12 |
| AAUCAGCAAUAUUACGGUCA | 0.236 ± 0.1 | 0.432 ± 0.12 |
| AAUCAGCAAUAUUACGUAAG | -0.572 ± 0.075 | -0.104 ± 0.1 |
| AAUCAGCAAUAUUACGUACG | -0.91 ± 0.056 | -0.149 ± 0.075 |
| AAUCAGCAAUAUUACGUCGA | -0.548 ± 0.095 | 0.0423 ± 0.1 |
| AAUCAGCAAUAUUACGUCUA | -0.491 ± 0.069 | -0.133 ± 0.076 |
